Results reported in patent US20100086538A1 (UCB, published 2010).
Where a chain is given by its changes, count along the chain named. Numbers in names are those of the source. Where “and” joins values, the source holds several entries; their conditions need not be identical. Equal entries are not always repeated.

How the values were obtained:
[1] = target: T1, recombinant human IL-17 (R & D systems) (human, UniProt Q16552 20-155, limits assumed); experiment: cell-based or functional assay
T1 sequence (looked up): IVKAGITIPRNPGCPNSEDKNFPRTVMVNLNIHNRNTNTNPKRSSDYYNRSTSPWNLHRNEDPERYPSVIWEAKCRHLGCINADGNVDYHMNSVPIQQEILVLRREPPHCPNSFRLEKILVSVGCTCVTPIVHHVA

[2] = target: T2, mammalian cell (CHO) derived human IL-17 (human, UniProt Q16552 24-155); experiment: cell-based or functional assay
T2 sequence (looked up): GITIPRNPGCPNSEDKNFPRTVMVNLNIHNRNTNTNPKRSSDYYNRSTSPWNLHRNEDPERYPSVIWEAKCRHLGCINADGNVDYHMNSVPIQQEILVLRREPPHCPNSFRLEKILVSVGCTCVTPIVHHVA

[3] = target: T1, recombinant human IL-17 (R & D systems); experiment: BIAcore 3000, antibody captured by anti-human IgG Fc, IL-17 as analyte
Method: (§1) BIA (Biamolecular Interaction Analysis) was performed using a BIAcore 3000 (BIAcore AB). Affinipure F(ab′)₂ Fragment goat anti-human IgG, Fc (Jackson ImmunoResearch) was immobilised on a CM5 Sensor Chip via amine coupling chemistry to a capture level of ≈8000 response units (RUs). HBS-EP buffer (10 mM HEPES pH 7.4, 0.15 M NaCl, 3 mM EDTA, 0.005% Surfactant P20, BIAcore AB) was used as the running buffer with a flow rate of 10 μL/min. A 10 μL injection of CA028_{—}497.g2 was used for capture by the immobilised anti-human IgG-F(ab)₂. IL-17 was titrated over the captured CA028_{—}497.g2 at various concentrations at a flow rate of 30 μL/min. The surface was regenerated by a 30 μL injection of 40 mM HCl, followed by a 10 μL injection of 5 mM NaOH.
(§2) Background subtraction binding curves were analysed using the BIAevaluation software (version 3.2) following standard procedures. Kinetic parameters were determined from the fitting algorithm.
(§3) The concentrations of IL-17 from different non-human primate (NHP) species expressed transiently were estimated relative to human IL-17 and these concentrations were then used to determine the affinities of the IL-17s. The affinity was measured at IL-17 concentrations at or below 25 nM. […] The concentration of transient cynomolgus IL-17 and transient marmoset IL-17 was estimated based on equivalent human IL-17 binding.

[4] = target: T3, cynomolgus monkey IL-17 (expressed transiently) (cynomolgus monkey, UniProt A0A2K5TTB0 24-155); experiment: as above
T3 construct: also called transient cynomolgus IL-17
T3 sequence: T2 sequence (looked up) with T3A, P8S, N34S, I77V, N78K, P104R
Method: as §1, §2, §3

[5] = target: T4, marmoset IL-17 (expressed transiently) (marmoset, UniProt A0ACM8QD00 24-153); experiment: as above
T4 construct: also called marmoset 06073130c; transient marmoset IL-17
T4 sequence: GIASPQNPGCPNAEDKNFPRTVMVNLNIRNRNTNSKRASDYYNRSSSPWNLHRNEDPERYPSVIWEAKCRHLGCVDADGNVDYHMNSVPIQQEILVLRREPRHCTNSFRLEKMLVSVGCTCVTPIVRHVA
Method: as §1, §2, §3

[6] = target: T3, cynomolgus monkey IL-17 (expressed …); experiment: BIAcore 3000, antibody captured by anti-human IgG Fc, IL-17 as analyte; analyte concentration estimated
Method: as §1, §2, §3

[7] = target: T4, marmoset IL-17 (expressed transiently); experiment: as above
Method: as §1, §2, §3

[8] = target: T3, cynomolgus monkey IL-17 (expressed …); experiment: BIAcore 3000, antibody captured by anti-human IgG Fc, IL-17 as analyte; analyte concentration estimated; transient cynomolgus IL-17, concentration estimated
Method: as §1, §2, §3

B1: antibody CA028-497.g2 (antibody, human IgG4 S228P, kappa, V domains shown)
VH: EVQLVESGGGLVKPGGSLRLSCAASGVIFSDYYMAWVRQAPGKGLEWVASINFNADISYYRESVKGRFTISRDDSKNTLYLQMNSLKTEDTAVYYCTTDANRQNYDWFAYWGQGTLVTVSS
VL: AIQLTQSPSSLSASVGDRVTITCKASESVSSSMYSYMHWYQQKPGKAPKLLIYRASNLESGVPSRFSGSGSGTDFTLTISSLQPEDFATYYCQQSWTAPRTFGQGTKVEIKR
notes: Humanised IgG4 (S241P) kappa antibody made in CHO cells; also called CA048-497.g2; CA048 497.g2
[1]
  IC50, inhibition of IL-17 induced IL-6 production in Hela cells: 51 ng/mL and 0.34 nM
[2]
  IC50, inhibition of IL-17 induced IL-6 production in Hela cells: 103 ng/mL and 0.7 nM
[3]
  Kd: 6.28 pM and 6.3 pM
  koff: 7.38e-06 s⁻¹
  kon: 1.86e+06 M⁻¹ s⁻¹
[4]
  koff: 1.68e-05 s⁻¹
[5]
  koff: 1.46e-05 s⁻¹
[6]
  Kd: 10.7 pM
[7]
  Kd: 12.9 pM
  kon: 1.13e+06 M⁻¹ s⁻¹
[8]
  kon: 1.57e+06 M⁻¹ s⁻¹
